Measured values published in the supplement of paper PMC10567573.

B1: MFF (parent)
chain: DDLTVVDAASLRRQIIKLNRRLQL

Variants of: B1
Assay: protein stability index of a GFP-peptide fusion (GPS, HEK-293T) (PSI 1-6); higher = more stable
Details: c terminus: a fixed tail appended
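Note: lentivirally expressed fusions sorted by FACS into six bins by GFP to DsRed ratio, PSI derived from sequencing read proportions per bin multiplied by bin number.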

Protein stability index of substitutions, site by site:
R21: Y 1.94, W 1.91, T 1.91, Q 1.84, K 1.88, D 1.73, M 1.14, N 2.46, L 1.33, E 1.46, S 2.98, A 1.57, C 1.95, V 1.79, H 1.6, P 2.99, G 1.84, F 2.33
I16: P 3.66, G 1.64, Q 1.98, S 1.52, M 1.67, R 3.58, N 2.8, A 2.48, Y 2.97, L 2.19, T 1.92, E 1.88, C 1.69, D 2.85, F 3.4, H 2.26
A9: N 2.42, R 4.18, G 2.11, W 1.84, D 2.02, K 2.31, I 2.79, E 2.13, H 2.52, P 2.12, F 1.58, Q 2.22, T 1.82, L 2.08, S 2.2, M 1.84, Y 2.48, C 2.03
R13: V 2.55, D 2.27, N 2.21, M 2.54, A 2.88, E 2.42, Y 1.7, I 1.41, G 2.14, L 2.56, H 1.95, Q 2.06, T 1.85, F 1.69, P 2.56, S 2.39, K 2.17, C 2.22
Q14: N 2.31, L 2.45, C 2.27, D 2.16, A 1.82, E 1.78, K 2.23, F 1.51, H 1.57, I 2.3, R 2.58, P 3.56, T 3.2, G 2.5, M 1.04, S 2.11, Y 1.54
R12: S 2.1, N 2.42, Q 2.13, G 1.85, Y 1.9, C 1.95, D 2.5, F 1.99, I 1.23, W 1.92, V 2.06, M 1.64, T 1.73, K 2.01, A 2.07, H 2.58, L 1.67, P 2.51
Q23: M 2.43, E 2.5, I 2.14, L 2.15, C 1.91, P 2.62, H 1.5, D 2.33, S 2.63, G 2.5, K 2.38, F 2.32, N 2.31, R 2.23, A 1.57
N19: I 2.02, V 2.25, R 1.76, D 3.79, E 3, Y 1.85, S 2.38, W 2.86, F 2.16, T 2.68, Q 2.01, C 3.04, H 1.75, P 2.33, M 1.74, K 1.94
L18: D 4.13, F 3.41, N 3.39, S 3.04, V 1.95, P 3.42, A 1.86, Y 3.26, G 2.48, W 1.84, M 2.38, H 3, I 3.42, R 3.73, K 3.31, T 2.89, C 1.62
I15: W 2.34, Q 3.66, Y 2.57, D 3.96, E 3.83, A 2.43, L 2.23, T 2.94, N 2.71, M 1.87, P 4.26, S 3.74, V 3.05, K 3.5, R 3.71, F 2, G 3
L22: T 2.62, Q 3.21, V 2.61, K 3.74, W 2.4, A 3.25, G 3.13, N 3.78, P 3.52, D 3.95, E 2.77, Y 2.7, S 3.6, H 2.95, R 3.01, I 1.99, F 2.36, C 1.91, M 3.02
L11: K 3.28, M 2.51, H 3.19, E 3.7, A 2.33, N 2.59, V 3.05, P 3.33, R 3.91, G 3.84, Q 3.24, S 3.73, C 2.16, Y 2.82, D 3.79, W 2.84, I 2.72, T 3.39, F 2.48
A8: V 1.9, R 2.57, G 3.13, P 2.42, I 1.61, N 2.63, D 2.8, Y 1.3, E 2.63, K 3.29, L 2.58, C 1.93, M 3.09, W 2.17, H 1.95, Q 2.38, F 2.35, T 1.69, S 2.49
R20: N 2.4, I 2.07, G 2.04, T 2.76, F 2.43, Y 1.74, W 1.37, M 2.21, C 2.06, Q 1.85, E 2.02, K 1.02, V 1.9, L 2.37, D 2.82, P 2.79, A 1.9, H 2.26, S 1.96
D7: E 2.04, G 2.71, M 2.19, T 1.64, C 1.4, H 3.12, F 1.85, N 1.89, Q 2.17, Y 1.61, A 2.29, P 2.71, K 1.89, S 2.24, W 1.92, R 2.93
V5: F 1.72, P 2.42, N 2.61, R 1.7, A 2.44, I 2.66, L 1.69, W 1.93, C 1.72, E 2.38, S 2.5, Q 2.26, Y 2.17, D 2.37, K 2.47, H 2.69, M 2.05, T 2.69
K17: R 2.24, Q 1.57, A 1.01, T 2.47, W 1.74, H 2.08, V 1.66, S 2.76, P 3.72, D 1.85, L 2.37, C 2.44, Y 1.89, G 1.99, N 2.2, I 1.85
V6: T 2.34, N 2.4, M 1.99, E 2.08, A 2.91, Y 1.77, L 2.37, S 1.64, I 1.55, K 2.35, W 2.4, H 2.71, F 2.29, P 4.09, Q 1.9, D 2.3, C 2.41, G 3.34, R 2.91
S10: A 1.7, K 1.79, L 1.24, Y 1.69, N 2.28, R 2.83, V 1.64, D 2.05, G 2.3, I 1.72, Q 2.28, T 1.61, W 3.84, E 2.13, H 2.02, P 2.89, M 1.42, C 1.48, F 2.32
